Source: article PMC12790805, “The Structure of the Drp1 Lattice on Membrane” (Journal of molecular biology, 2025)
Several values for one entry are separate records, joined by “and”; a condition that tells them apart may be missing. Identical values can stand only once. Values belong to the molecule of their own block, whether it stands above or below them.

Tests used:
[1] = target: Drp1 with deletion of the MoRF-1 sequence (human) (UniProt O00429); experiment: mass photometry; Drp1 in solution; molecular weight determined by mass photometry; conditions not given
[2] = target: the molecule itself; experiment: as above

stoichiometry N [1]: 2
Molecule: Drp1 with deletion of the MoRF-1 sequence (from UniProt O00429-4 1-699) (enzyme)

B1: dynamin-related protein 1 (Drp1) isoform 3, full-length human (enzyme, UniProt O00429-4 1-699, looked up)
chain: MEALIPVINKLQDVFNTVGADIIQLPQIVVVGTQSSGKSSVLESLVGRDLLPRGTGIVTRRPLILQLVHVSQEDKRKTTGEENGVEAEEWGKFLHTKNKLYTDFDEIRQEIENETERISGNNKGVSPEPIHLKIFSPNVVNLTLVDLPGMTKVPVGDQPKDIELQIRELILRFISNPNSIILAVTAANTDMATSEALKISREVDPDGRRTLAVITKLDLMDAGTDAMDVLMGRVIPVKLGIIGVVNRSQLDINNKKSVTDSIRDEYAFLQKKYPSLANRNGTKYLARTLNRLLMHHIRDCLPELKTRINVLAAQYQSLLNSYGEPVDDKSATLLQLITKFATEYCNTIEGTAKYIETSELCGGARICYIFHETFGRTLESVDPLGGLNTIDILTAIRNATGPRPALFVPEVSFELLVKRQIKRLEEPSLRCVELVHEEMQRIIQHCSNYSTQELLRFPKLHDAIVEVVTCLLRKRLPVTNEMVHNLVAIELAYINTKHPDFADACGLMNNNIEEQRRNRLARELPSAVSRDKVASGGGGVGDGVQEPTTGNWRGMLKTSKAEELLAEEKSKPIPIMPASPQKGHAVNLLDVPVPVARKLSAREQRDCEVIERLIKSYFLIVRKNIQDSVPKAVMHFLVNHVKDTLQSELVGQLYKSSLLDDLLTESEDMAQRRKEAADMLKALQGASQIIAEIRETHLW
notes: human dynamin-related protein 1 (Drp1), isoform 3, UniProt O00429-4, full length; CBP tag removed with PreScission protease; also called Drp1-3; WT; source: E. coli BL21 (DE3) Star, purified (calmodulin agarose, SEC)
stoichiometry N [2]: 2 and 4 and 6
